Values of other authors as cited in publication PMC7150914.

What was measured:
CNGA1 (Bos taurus) = CNGA1 (Bos taurus) (UniProt Q00194)
[1] = molecular target: CNGA2 (Rattus norvegicus) (UniProt Q00195)
[2] = molecular target: α-1B glycoprotein (Homo sapiens) (UniProt P04217)
[3] = molecular target: PSP94 (β-microseminoprotein) (Homo sapiens) (UniProt P08118)
Sequence of UniProt P08118 (P08118 21-114): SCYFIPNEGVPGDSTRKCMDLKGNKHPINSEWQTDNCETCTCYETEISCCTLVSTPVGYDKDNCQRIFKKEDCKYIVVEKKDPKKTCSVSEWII

Sequence of UniProt Q00194 (Q00194 whole entry): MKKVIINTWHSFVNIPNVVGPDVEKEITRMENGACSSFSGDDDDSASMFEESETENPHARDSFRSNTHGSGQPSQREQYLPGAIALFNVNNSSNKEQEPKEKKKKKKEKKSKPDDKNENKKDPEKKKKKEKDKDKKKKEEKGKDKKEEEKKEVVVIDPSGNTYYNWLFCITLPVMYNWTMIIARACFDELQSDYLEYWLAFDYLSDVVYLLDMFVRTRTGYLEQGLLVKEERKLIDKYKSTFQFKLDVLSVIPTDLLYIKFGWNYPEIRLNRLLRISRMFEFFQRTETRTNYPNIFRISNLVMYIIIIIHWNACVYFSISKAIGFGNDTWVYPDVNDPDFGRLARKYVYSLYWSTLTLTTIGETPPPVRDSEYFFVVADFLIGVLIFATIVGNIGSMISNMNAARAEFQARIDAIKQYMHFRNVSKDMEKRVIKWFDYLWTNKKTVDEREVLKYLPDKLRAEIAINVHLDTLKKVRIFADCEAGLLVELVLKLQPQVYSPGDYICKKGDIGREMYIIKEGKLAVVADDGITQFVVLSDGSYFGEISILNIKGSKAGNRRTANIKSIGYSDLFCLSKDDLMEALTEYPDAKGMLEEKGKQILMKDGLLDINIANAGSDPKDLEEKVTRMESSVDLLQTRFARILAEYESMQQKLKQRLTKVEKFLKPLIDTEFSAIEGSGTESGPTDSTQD
Sequence of UniProt P04217 (P04217 22-495): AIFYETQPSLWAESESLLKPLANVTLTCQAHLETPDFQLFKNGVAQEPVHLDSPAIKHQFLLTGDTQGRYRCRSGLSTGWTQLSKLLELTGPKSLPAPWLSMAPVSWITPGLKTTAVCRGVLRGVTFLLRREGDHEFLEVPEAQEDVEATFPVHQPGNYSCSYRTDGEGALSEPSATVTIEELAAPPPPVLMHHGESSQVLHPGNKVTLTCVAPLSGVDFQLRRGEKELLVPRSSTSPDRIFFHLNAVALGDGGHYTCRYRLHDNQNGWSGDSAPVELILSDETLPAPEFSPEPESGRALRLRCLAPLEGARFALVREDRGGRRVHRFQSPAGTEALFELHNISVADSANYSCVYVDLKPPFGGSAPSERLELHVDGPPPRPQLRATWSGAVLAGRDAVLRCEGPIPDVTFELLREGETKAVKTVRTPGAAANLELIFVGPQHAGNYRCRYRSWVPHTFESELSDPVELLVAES
Sequence of UniProt Q00195 (Q00195 whole entry): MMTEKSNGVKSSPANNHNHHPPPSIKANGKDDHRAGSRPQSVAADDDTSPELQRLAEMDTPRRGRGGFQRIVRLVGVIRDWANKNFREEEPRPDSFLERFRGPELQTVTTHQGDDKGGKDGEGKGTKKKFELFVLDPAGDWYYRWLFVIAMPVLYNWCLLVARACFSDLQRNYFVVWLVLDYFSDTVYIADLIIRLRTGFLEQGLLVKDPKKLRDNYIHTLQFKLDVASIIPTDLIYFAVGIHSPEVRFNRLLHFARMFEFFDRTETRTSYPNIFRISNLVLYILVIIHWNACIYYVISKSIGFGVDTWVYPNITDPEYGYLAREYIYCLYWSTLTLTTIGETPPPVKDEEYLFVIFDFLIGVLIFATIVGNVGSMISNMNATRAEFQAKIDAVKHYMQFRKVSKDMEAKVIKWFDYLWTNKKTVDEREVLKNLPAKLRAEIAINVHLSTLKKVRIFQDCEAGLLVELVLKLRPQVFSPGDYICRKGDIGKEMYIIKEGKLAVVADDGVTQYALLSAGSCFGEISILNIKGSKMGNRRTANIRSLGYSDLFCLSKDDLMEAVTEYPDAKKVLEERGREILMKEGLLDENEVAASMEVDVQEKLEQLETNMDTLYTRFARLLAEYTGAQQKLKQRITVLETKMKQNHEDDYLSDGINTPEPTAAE

| Kd [2] [nM] | Kd [3] [nM] | Substance | Ki (CNGA1 (Bos taurus)) [nM] | Ki [1] [nM] |
| --- | --- | --- | --- | --- |
| – | – | Pseudechetoxin (PsTx) (from UniProt Q8AVA4) | 70 | 15 |
| 2.8 | 0.0628 | CRISP-3 (from UniProt P54108) | – | – |
